Measurements taken from patent publication US20230012273A1 (Boehringer Ingelheim, published 2023).

T1: cynoSIRPα (EGM_02252), Extracellular Domain + His-Tag (cynomolgus monkey)
T1 construct: also called CySIRPα EGM_02252; not shown: His-Tag
T1 chain: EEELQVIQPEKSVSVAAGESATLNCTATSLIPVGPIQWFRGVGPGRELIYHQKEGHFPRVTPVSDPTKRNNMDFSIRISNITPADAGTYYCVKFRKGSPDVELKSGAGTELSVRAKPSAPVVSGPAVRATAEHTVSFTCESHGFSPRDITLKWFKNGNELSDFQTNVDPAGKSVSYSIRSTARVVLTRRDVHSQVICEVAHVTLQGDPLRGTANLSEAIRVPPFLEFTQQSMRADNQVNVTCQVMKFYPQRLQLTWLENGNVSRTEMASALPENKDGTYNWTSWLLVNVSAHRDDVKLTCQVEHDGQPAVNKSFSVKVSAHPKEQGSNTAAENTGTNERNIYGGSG

T2: cynoSIRPα (XP_015313155), Extracellular Domain + His-Tag (cynomolgus monkey)
T2 construct: also called CySIRPα XP_015313155; not shown: His-Tag
T2 chain: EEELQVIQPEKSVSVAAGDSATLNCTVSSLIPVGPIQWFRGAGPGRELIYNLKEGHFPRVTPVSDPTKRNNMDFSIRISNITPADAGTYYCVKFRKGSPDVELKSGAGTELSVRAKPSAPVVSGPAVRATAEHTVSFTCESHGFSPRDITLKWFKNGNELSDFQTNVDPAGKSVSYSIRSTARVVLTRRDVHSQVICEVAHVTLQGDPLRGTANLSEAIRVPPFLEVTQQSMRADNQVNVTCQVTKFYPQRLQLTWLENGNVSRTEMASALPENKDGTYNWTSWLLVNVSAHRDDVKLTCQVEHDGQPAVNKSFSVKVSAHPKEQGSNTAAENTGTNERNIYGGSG

T3: cynoSIRPα (NP_001271679), Extracellular Domain + His-Tag (cynomolgus monkey)
T3 construct: also called CySIRPα NP_001271679; not shown: His-Tag
T3 chain: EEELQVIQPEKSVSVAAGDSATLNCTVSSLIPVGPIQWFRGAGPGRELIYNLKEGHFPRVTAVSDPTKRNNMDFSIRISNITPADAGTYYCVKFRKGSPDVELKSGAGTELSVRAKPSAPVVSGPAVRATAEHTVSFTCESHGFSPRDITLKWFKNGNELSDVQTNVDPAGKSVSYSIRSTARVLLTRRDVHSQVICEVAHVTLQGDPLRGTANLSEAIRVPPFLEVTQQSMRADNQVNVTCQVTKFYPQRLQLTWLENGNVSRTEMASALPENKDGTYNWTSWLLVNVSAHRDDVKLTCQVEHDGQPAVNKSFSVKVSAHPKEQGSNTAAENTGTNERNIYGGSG


Experiments:
[1] = biological target: T1, cynoSIRPα (EGM_02252), Extracellular …; assay: SPR, antibody captured on Protein A/G, ECD-His analyte, steady-state fit
Experimental: (§1) The binding kinetics of anti-SIRPα antibodies to various SIRPα analytes are determined by surface plasmon resonance (SPR) using a Biacore 8K+(Cytiva). 1×HBS-EP+(Cytiva) is used as running buffer and for all the dilutions unless stated otherwise. The Series S CM5 sensorchip is activated with a 1:1 mixture of 0.1 M NHS (N-hydroxysuccinimide) and 0.4 M EDC (1-Ethyl-3-(3-dimethylaminopropyl) carbodiimide hydrochloride) for 420 seconds at a flow rate of 10 μl/min and immobilized with Protein A/G (Thermo Scientific, 10 μg/ml in 10 mM acetate pH 4.5) for 420 seconds at a flowrate of 10 μl/min resulting in approximately 3000 RU of Protein A/G on the surface. The sensorchip is then deactivated with 1 M ethanolamine HCl pH 8.5 for 420 seconds at a flowrate of 10 μl/min.
(§2) Antibodies (approximately 1 ug/ml) are captured on the Protein A/G surface for 60 seconds at a flowrate of 10 μl/min resulting in capture levels of approximately 240 RU. Dilutions of each SIRP protein (Extracellular Domain+His-Tag, with the concentrations as indicated) are injected as analytes over the captured antibody for 300 seconds of association at a flowrate of 30 μl/min, followed by a dissociation for 600 seconds.
(§3) The above procedures are used to measure binding properties of antibodies of the present disclosure. For each analyte used, the highest concentration was as indicated in Example 3 (see Table 36).

[2] = biological target: T2, cynoSIRPα (XP_015313155), Extracellular …; assay: as above
Experimental: as §1, §2, §3

[3] = biological target: T3, cynoSIRPα (NP_001271679), Extracellular …; assay: SPR, antibody captured on Protein A/G, ECD-His analyte, 1:1 fit
Outline: (§4)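 Biacore 8K+ at HBS-EP+, with antibodies (~1 ug/ml) captured on Protein A/G CM5 surface to ~240 RU. SIRPα ECD-His analyte dilutions injected at 30 μl/min for 300 s association, 600 s dissociation.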

[4] = biological target: T1, cynoSIRPα (EGM_02252), Extracellular …; assay: SPR, antibody captured on Protein A/G, ECD-His analyte
Experimental: as §1, §2

[5] = biological target: T2, cynoSIRPα (XP_015313155), Extracellular …; assay: SPR, antibody captured on Protein A/G, ECD-His analyte, 1:1 fit
Outline: as §4

[6] = biological target: T4, Human SIRPαV1 (NP_542970.1), Extracellular Domain + His-Tag (human, UniProt P78324 31-373); assay: as above
T4 construct: also called huSIRPαV1; hSIRPαV1; not shown: His-Tag
T4 sequence (P78324 other isoform, or with tags, fused parts or gaps): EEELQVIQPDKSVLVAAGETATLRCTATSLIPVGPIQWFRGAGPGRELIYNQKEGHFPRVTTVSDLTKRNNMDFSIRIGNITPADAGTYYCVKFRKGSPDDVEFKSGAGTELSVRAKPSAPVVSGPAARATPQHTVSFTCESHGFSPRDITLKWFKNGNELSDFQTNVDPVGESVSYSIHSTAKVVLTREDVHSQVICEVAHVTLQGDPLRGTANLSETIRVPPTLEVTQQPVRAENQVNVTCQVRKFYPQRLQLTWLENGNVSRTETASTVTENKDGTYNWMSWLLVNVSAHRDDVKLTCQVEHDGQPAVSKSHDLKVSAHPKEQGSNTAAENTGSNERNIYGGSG
Outline: as §4

[7] = biological target: T5, Human SIRPαV2 (CAA71403.1), Extracellular Domain + His-Tag (human, UniProt P78324 31-373); assay: as above
T5 construct: also called huSIRPαV2; hSIRPαV2; not shown: His-Tag
T5 sequence (P78324 other isoform, or with tags, fused parts or gaps): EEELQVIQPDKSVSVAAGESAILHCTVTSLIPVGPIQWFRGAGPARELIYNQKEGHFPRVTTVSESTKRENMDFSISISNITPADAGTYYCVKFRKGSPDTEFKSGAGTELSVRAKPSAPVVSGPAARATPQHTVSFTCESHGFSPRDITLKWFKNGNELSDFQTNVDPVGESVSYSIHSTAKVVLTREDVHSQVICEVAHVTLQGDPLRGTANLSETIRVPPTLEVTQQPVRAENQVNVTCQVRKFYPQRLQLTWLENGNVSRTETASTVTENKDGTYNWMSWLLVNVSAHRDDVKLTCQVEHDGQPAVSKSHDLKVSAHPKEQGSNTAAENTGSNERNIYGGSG
Outline: as §4

Kd [1] [nM] | Kd [2] [nM] | Kd [3] [nM] | koff [3] [s⁻¹] | kon [3] [M⁻¹ s⁻¹] | binding result [4] | Kd [5] [nM] | koff [5] [s⁻¹] | kon [5] [M⁻¹ s⁻¹] | Kd [6] [nM] | koff [6] [s⁻¹] | kon [6] [M⁻¹ s⁻¹] | Kd [7] [nM] | koff [7] [s⁻¹] | kon [7] [M⁻¹ s⁻¹] | Binder
258 | 165 | 158 | 0.138 | 873000 | – | – | – | – | – | – | – | – | – | – | Antibody A (antibody, human IgG1, kappa, L234A L235A) heavy: not shown light: DIQMTQSPSSLSASVGDRVTITCRASQDINNYLAWFQQKPGKAPKSLIYTASSLHSGVPSKFSGSGSGTDFTLTISSLQPEDFATYYCQQYVSYPYTFGQGTKLEIKRTVAAPSVFIFPPSDEQLKSGTASVVCLLNNFYPREAKVQWKVDNALQSGNSQESVTEQDSKDSTYSLSSTLTLSKADYEKHKVYACEVTHQGLSSPVTKSFNRGEC
– | – | 44.8 | 0.0126 | 282000 | no binding (tested: 1000 nM) | 43.2 | 0.0126 | 292000 | 2.36 | 0.000955 | 405000 | 0.8 | 0.000405 | 508000 | Antibody E17 (antibody, human IgG1, kappa, L234A L235A, V domains shown) VH: QVQLQESGPGLVRPSETLSLTCTVSGGSIRNYYWSWIRQPPGKGLEWMGFIYDNGRTFYNPSLKSRVTISLDMSMNQFSLKMTSVTAADTAVYYCARVRAYSGIGLDGTDVWGQGTTVTVSS VL: DIVMTQSPLSLPVTPGEPASISCKSSQSLLYSNAYNYLDWYLQRPGQSPQLLIYLGSNRASGVPDRFSGSGSGTDFTLKISRVEAEDVGVYYCMQALQTPLTFGGGTKVEIKR
– | – | 52.5 | 0.0118 | 224000 | no binding (tested: 1000 nM) | 50 | 0.0113 | 226000 | 2.46 | 0.00101 | 410000 | 0.9 | 0.000443 | 493000 | Antibody E18 (antibody, human IgG1, kappa, L234A L235A, V domains shown) VH: QVQLQESGPGLVRPSETLSLTCTVSGGSIRNYYWSWIRQPPGKGLEWIGFIYYTGRTFYNPSLKSRVTISLDMSKNQFSLKMTSVTAADTAVYYCARVRAYSGIGLDGTDVWGQGTTVTVSS VL: DIVMTQSPLSLPVTPGEPASISCKSSQSLLYSNGYAYLDWYLQRPGQSPQLLIYLGSNRASGVPDRFSGSGSGTDFTLKISRVEAEDVGVYYCMQALQTPLTFGGGTKVEIKR
– | – | 111 | 0.0278 | 251000 | no binding (tested: 1000 nM) | 104 | 0.0261 | 251000 | 3.42 | 0.00164 | 480000 | 1.11 | 0.000627 | 563000 | Antibody E20 (antibody, human IgG1, kappa, L234A L235A, V domains shown) VH: QVQLQESGPGLVRPSETLSLTCTVSGGSIRNYYWSWIRQPPGKGLEWIGFIYYTGRTFYNPSLKSRVTISLDMSINQFSLKMTSVTAADTAVYYCARVRAYSGIGLDGTDVWGQGTTVTVSS VL: DIVMTQSPLSLPVTPGEPASISCKSSQSLLYSNAYNYLDWYLQRPGQSPQLLIYLGSNRASGVPDRFSGSGSGTDFTLKISRVEAEDVGVYYCMQALQTPLTFGGGTKVEIKR
– | – | 46.6 | 0.00725 | 156000 | no binding (tested: 1000 nM) | 44.7 | 0.00687 | 154000 | 2.52 | 0.000843 | 334000 | 0.97 | 0.000399 | 411000 | Antibody E19 (antibody, human IgG1, kappa, L234A L235A, V domains shown) VH: QVQLQESGPGLVRPSETLSLTCTVSGGSIRNYYWSWIRQPPGKGLEWIGFIYYTGRTFYNPSLKSRVTISLDMSKNQFSLKMTSVTAADTAVYYCARVRAYSGIGLDGTDVWGQGTTVTVSS VL: DIVMTQSPLSLPVTPGEPASISCKSSQSLLYSNGYAYLDWYLQRPGQSPQLLIYQGSNRASGVPDRFSGSGSGTDFTLKISRVEAEDVGVFYCMQALQTPLTFGGGTKVEIKR
– | – | 107 | 0.0242 | 225000 | no binding (tested: 1000 nM) | 108 | 0.0245 | 228000 | 4.46 | 0.00212 | 476000 | 1.39 | 0.000761 | 549000 | Antibody E21 (antibody, human IgG1, kappa, L234A L235A, V domains shown) VH: QVQLQESGPGLVRPSETLSLTCTVSGGSIRNYYWSWIRQPPGKGLEWIGFIYYTGRTFYNPSLKSRVTISLDMSKNQFSLKMTSVTAADTAVYYCARVRAYSGIGLDGTDVWGQGTTVTVSS VL: DIVMTQSPLSLPVTPGEPASISCKSSQSLLYSNAYNYLDWYLQRPGQSPQLLIYLGSNRASGVPDRFSGSGSGTDFTLKISRVEAEDVGVYYCMQALQTPLTFGGGTKVEIKR
